From article doi:10.1101/2020.11.26.400622 (bioRxiv, 2020)

B1: circularly permuted human Taspase1 cp-Taspase1_(α41-183/β) (enzyme)
chain: TVGAVVVDHEGNVAAAVSSGGLALKHPGRVGQAALYGCGCWAENTGAHNPYSTAVSTSGCGEHLVRTILARECSHALQAEDAHQALLETMQNKFISSPFLASEDGVLGGVIVLRSCRCSAEPDSSQNKQTLLVEFLWSHTTESMCVGYMSAQDGKAKTHISRLPPGAVAGQSVAIEGGVCRLEGSGSGGFVLVHAGAGYHSESKAKEYKHVCKRACQKAIEKLQAGALATDAVTAALVELEDSPFTNAGMGSNLNLLGEIECDASIMDGKSLNFGAVGALSGIKNPVSVANRLLCEGQKGKLSAGRIPPCFLVGEGAYRWAVDHGIPSCP
B2: circularly permuted human Taspase1 cp-Taspase1_(α41-233/β) (enzyme)
chain: TVGAVVVDHEGNVAAAVSSGGLALKHPGRVGQAALYGCGCWAENTGAHNPYSTAVSTSGCGEHLVRTILARECSHALQAEDAHQALLETMQNKFISSPFLASEDGVLGGVIVLRSCRCSAEPDSSQNKQTLLVEFLWSHTTESMCVGYMSAQDGKAKTHISRLPPGAVAGQSVAIEGGVCRLEGSGSGGFVLVHAGAGYHSESKAKEYKHVCKRACQKAIEKLQAGALATDAVTAALVELEDSPFTNAGMGSNLNLLGEIECDASIMDGKSLNFGAVGALSGIKNPVSVANRLLCEGQKGKLSAGRIPPCFLVGEGAYRWAVDHGIPSCPPNIMTTRFSLAAFKRNKRKLELAERVDTDFMQLKKRRQSSEKENDSGTLD

Columns and labels:
[1] = biological target: the molecule itself; assay: crystal structure
[2] = biological target: the molecule itself; assay: negative staining electron microscopy
[3] = biological target: the molecule itself; assay: dynamic light scattering
[4] = biological target: the molecule itself; assay: dynamic light scattering; remark: listed apart in the source

Protein	binding result [1]	stoichiometry N [2]	stoichiometry N [3]	stoichiometry N [4]
B1	binds	–	–	–
B2	–	2	6	4
